Experimental data published in PMC8610377, “Target identification for small-molecule discovery in the FOXO3a tumor-suppressor pathway using a biodiverse peptide library” (Cell Chemical Biology, 2021).

Tests used:
[1] = tested on: GFP-FOXO3a localization in U2OS-GFP-FOXO3a cells; experiment: FOXO3a relocalisation assay, small-molecule inhibitors, U2OS-GFP-FOXO3a; type: cell-based, human
Procedure: Cells were transfected with plasmid DNA or siRNA or treated with compounds and incubated for the indicated time. Cells were then fixed in a final concentration of 3.7% formaldehyde by addition of fixative directly to the medium for 10min, then stained with 4 μg/mL Hoechst 33,342 (Invitrogen). For testing of peptides in the U2OS-GFP-FOXO3a cell line, cells were transfected with plasmid DNA using FuGENE 6 (Promega, E2691) as described for the screen. For testing of peptides in the HEK293T cell line, cells were co-transfected with a plasmid encoding the test plasmid and a plasmid encoding GFP-FOXO3a using JetPRIME transfection reagent in 96-well plates. At the indicated time point, cells were then fixed and stained as described above. Leptomycin B was purchased from NEB. PI-103 and BEZ235 were purchased from Selleckchem. GSK690693 was purchased from Sigma. […] Average intensities were calculated for each region and the ratio between nuclear and cytoplasmic GFP-FOXO3a was then calculated. […] Results were then expressed as the percentage of cells with nuclear GFP-FOXO3a. […] Images were acquired and then analyzed using a range of nuclear:cytoplasmic ratios to identify a ratio which reproducibly gave the maximal window between DMSO and PI-103 treated cells. […] Median intensities were calculated for each region and the ratio between nuclear and cytoplasmic GFP-FOXO3a was then calculated.

[2] = target: TAMRA-9J10Min peptide (5-TAMRA-GRRRN(p-Serine)N-acid) (Streptomyces avermitilis); experiment: fluorescence polarisation; His-14-3-3ε titrated against 10 nM TAMRA-p9J10Min; 10 mM HEPES, 150 mM NaCl, 0.05% Tween; room temperature
9J10/14-3-3ε interaction = target: T1, 9J10/14-3-3ε interaction (Homo sapiens, UniProt P62258); experiment: FP competition, TAMRA-p9J10Min binding to 14-3-3ε; conditions: 10nM TAMRA-p9J10Min, 1.5μM His-14-3-3ε, room temperature 20 min; mean of 3 independent experiments +/- SD; read-out: IC50, FP competition (unlabelled peptide)
T1 construct: A synthetic gene construct encoding full length human 14-3-3ε; made in house; host or cells: E. coli BL21(DE3)
T1 sequence (P62258 1-255): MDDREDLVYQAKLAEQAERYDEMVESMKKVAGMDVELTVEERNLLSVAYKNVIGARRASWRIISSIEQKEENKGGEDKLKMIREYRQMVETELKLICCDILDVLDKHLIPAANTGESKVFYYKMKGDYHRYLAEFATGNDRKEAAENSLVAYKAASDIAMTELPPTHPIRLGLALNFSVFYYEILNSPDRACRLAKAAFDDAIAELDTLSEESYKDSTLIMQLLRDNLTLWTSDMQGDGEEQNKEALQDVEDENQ
Procedure: Protein purity was visualized by running SDS-PAGE. […] Compound dilution plates, black 384 well NBS assay plates and tip racks were loaded into the Cytomat as indicated by the scheduling software. […] Test compounds were diluted to 3X final concentration in the dilution plates. 10 μL of diluted compound was added into each well of the assay plate followed by 10μL of […]-3-3ε and 10μL of TAMRA-p9J10Min. Plates were incubated at room temperature for 20 min on the robot's deck or in the Cytomat before the Fluorescence Polarisation was read using the BMG PheraStar plate reader. Test compounds were assayed in triplicate. […] DMSO controls were run alongside all experimental compounds and % inhibition normalised to these controls. All other experimental conditions were as described above.

[3] = tested on: transcriptome of HEK293T cells; experiment: RNA sequencing, differential gene expression; type: cell-based, human; conditions: 24 h
Procedure: HEK293T cells were transfected in T75 flasks with plasmid DNA encoding Vector, 9J10^WT, 9J10^AMut, GFP-FOXO3a-AAA or GFP, using JetRPIME transfection reagent. Cells were harvested 24 hr post-transfection. Five independent transfections on different days and using cells of different passage number were carried out for each condition.
Total RNA was isolated using the Qiagen RNeasy Mini Kit (#74104) complete with DNase digestion (Qiagen #79254), according to manufacturers instructions. RNA was submitted to Novogene for transcriptome sequencing. RNA degradation and contamination was monitored on 1% agarose gels. RNA purity was checked using the NanoPhotometer spectrophotometer (IMPLEN, CA, USA), and RNA integrity and quantitation were assessed using the RNA Nano 6000 Assay Kit of the Bioanalyzer 2100 system (Agilent Technologies, CA, USA).
HTSeq v0.6.1 was used to count the read numbers mapped to each gene, and then FPKM of each gene was calculated based on the length of the gene and reads count mapped to this gene. FPKM, […] Per Kilobase of exon model per Million mapped reads, considers the effect of sequencing depth and gene length for the reads count at the same time, and is currently the most commonly used method for estimating gene expression levels ([Mortazavi et al., 2008]).
Differential expression analysis between two conditions/groups (with biological replicates) was performed using the DESeq2 R package (2_1.6.3). DESeq2 provide statistical routines for determining differential expression in digital gene expression data using a model based on the negative binomial distribution. The resulting p values were adjusted using the Benjamini and Hochberg's approach for controlling the False Discovery Rate (FDR). Genes with an adjusted p value of <0.05 found by DESeq2 were assigned as differentially expressed.

[4] = target: 6x His-14-3-3ε (full length human 14-3-3ε) (human) (UniProt P62258); experiment: ITC; 24 μM 14-3-3ε in the cell titrated with 360 μM TAMRA-9J10; 25°C; 50 mM HEPES, 150 mM NaCl, 0.5 mM DTT; one set of sites model
[5] = target: 6x His-14-3-3ε (full length human 14-3-3ε) (human) (UniProt P62258); experiment: MST; 20 nM NT-647-labelled 14-3-3ε with cognate peptide (16-point dilution; 1 μM in the competitive assay with CU7218); 10 mM Hepes, 150 mM NaCl, 0.01% Tween 20; 25°C
[6] = target: 6x His-14-3-3ε (full length human 14-3-3ε) (human) (UniProt P62258); experiment: fluorescence polarisation; competition: unlabelled 9J10 peptide titrated against 10 nM TAMRA-p9J10Min bound to 1.5 μM His-14-3-3ε; 10 mM HEPES, 150 mM NaCl, 0.05% Tween
[7] = GFP-FOXO3a-AAA vs GFP, adjusted p <0.05

For `CCC(=C/[C@H](C)C/C=C/C(C)=C/[C@@H](C)C(=O)[C@@H](C)[C@H](O)[C@@H](C)C/C(C)=C/C(=O)O)/C=C/[C@@H]1OC(=O)C=C[C@@H]1C` [leptomycin B], the “relocalization of GFP-FOXO3a to the nucleus” value ([1]; U2OS-GFP-FOXO3a, 3 hr treatment, Figure 1A: PI-103 1 μM, GSK690693 1 μM, leptomycin 2 nM) was “can be relocalized to the nucleus”.

For `Oc1cccc(-c2nc(N3CCOCC3)c3oc4ncccc4c3n2)c1` [PI-103], the “nuclear translocation of GFP-FOXO3a” value ([1]; 1 μM PI-103, positive control) was “high degree of nuclear translocation of GFP-FOXO3a”.

For “6x His-14-3-3ε (full length human 14-3-3ε) (from UniProt P62258 1-255) (natural protein)”, the Kd [2] was 1470 nM.

Molecule `CC(C)C[C@H](N)C(=O)N[C@@H](CC(N)=O)C(=O)N[C@@H](CCCNC(=N)N)C(=O)N[C@H](C(=O)N1CCC[C@H]1C(=O)NCC(=O)N[C@@H](CCCNC(=N)N)C(=O)N[C@@H](CCCNC(=N)N)C(=O)N[C@@H](CCCNC(=N)N)C(=O)N[C@@H](CC(N)=O)C(=O)N[C@@H](COP(=O)(O)O)C(=O)N[C@@H](CC(N)=O)C(=O)O)[C@@H](C)O` [unlabeled 9J10-derived phosphopeptide] has an IC50 (9J10/14-3-3ε interaction) of 9800 ± 1200 nM.

B1: GFP-FOXO3a-AAA: constitutively active GFP-tagged FOXO3a mutant (protein, UniProt O43524 1-673, looked up, variant T32A S253A S315A)
Forkhead box protein O3: MAEAPASPAPLSPLEVELDPEFEPQSRPRSCAWPLQRPELQASPAKPSGETAADSMIPEEEDDEDDEDGGGRAGSAMAIGGGGGSGTLGSGLLLEDSARVLAPGGQDPGSGPATAAGGLSGGTQALLQPQQPLPPPQPGAAGGSGQPRKCSSRRNAWGNLSYADLITRAIESSPDKRLTLSQIYEWMVRCVPYFKDKGDSNSSAGWKNSIRHNLSLHSRFMRVQNEGTGKSSWWIINPDGGKSGKAPRRRAVAMDNSNKYTKSRGRAAKKKAALQTAPESADDSPSQLSKWPGSPTSRSSDELDAWTDFRSRTNANASTVSGRLSPIMASTELDEVQDDDAPLSPMLYSSSASLSPSVSKPCTVELPRLTDMAGTMNLNDGLTENLMDDLLDNITLPPSQPSPTGGLMQRSSSFPYTTKGSGLGSPTSSFNSTVFGPSSLNSLRQSPMQTIQENKPATFSSMSHYGNQTLQDLLTSDSLSHSDVMMTQSDPLMSQASTAVSAQNSRRNVMLRNDPMMSFAAQPNQGSLVNQNLLHHQHQTQGALGGSRALSNSVSNMGLSESSSLGSAKHQQQSPVSQSMQTLSDSLSGSSLYSTSANLPVMGHEKFPSDLDLDMFNGSLECDMESIIRSELMDADGLDFNFDSLISTQNVVGLNVGNFTGAKQASSQSWVPG
modifications: GFP tag
B1 was tested, and the “number of downregulated genes” value [3, 7] was 2,569 genes, the “number of upregulated genes” value [3, 7] was 3,026 genes and the “CDKN1A (p21^Cip1) expression” value ([3]; HEK293T) was “upregulated”. The “CDKN1B (p27^Kip1) expression” value ([3]; HEK293T) was “upregulated”.

B2: TAMRA-9J10 peptide (5-TAMRA-…(p-Serine)N-acid) (peptide)
peptide: LNRTPGRRRNSN
HELM: PEPTIDE1{[CN(C)c1ccc2c(-c3ccc(C(=O)[*:2])cc3C(=O)[O-])c3ccc(N(C)C)cc3[o+]c2c1].L.N.R.T.P.G.R.R.R.N.[O=C([C@H](COP(=O)(O)O)N[*:1])[*:2]].N}$$$$V2.0
SMILES: CC(C)C[C@H](NC(=O)c1ccc(-c2c3ccc(N(C)C)cc3[o+]c3cc(N(C)C)ccc23)c(C(=O)[O-])c1)C(=O)N[C@@H](CC(N)=O)C(=O)N[C@@H](CCCNC(=N)N)C(=O)N[C@H](C(=O)N1CCC[C@H]1C(=O)NCC(=O)N[C@@H](CCCNC(=N)N)C(=O)N[C@@H](CCCNC(=N)N)C(=O)N[C@@H](CCCNC(=N)N)C(=O)N[C@@H](CC(N)=O)C(=O)N[C@@H](COP(=O)(O)O)C(=O)N[C@@H](CC(N)=O)C(=O)O)[C@@H](C)O
B2 gave a Kd [4] of 700 nM.

B3: Unlabelled 9J10 peptide (…(p-Serine)N-acid) (peptide)
peptide: LNRTPGRRRNSN
HELM: PEPTIDE1{L.N.R.T.P.G.R.R.R.N.[O=C([C@H](COP(=O)(O)O)N[*:1])[*:2]].N}$$$$V2.0; N-terminus assumed
SMILES: CC(C)C[C@H](N)C(=O)N[C@@H](CC(N)=O)C(=O)N[C@@H](CCCNC(=N)N)C(=O)N[C@H](C(=O)N1CCC[C@H]1C(=O)NCC(=O)N[C@@H](CCCNC(=N)N)C(=O)N[C@@H](CCCNC(=N)N)C(=O)N[C@@H](CCCNC(=N)N)C(=O)N[C@@H](CC(N)=O)C(=O)N[C@@H](COP(=O)(O)O)C(=O)N[C@@H](CC(N)=O)C(=O)O)[C@@H](C)O
In the case of B3, the EC80 [5] is reported as 1000 nM and the IC50 [6] is reported as 9800 nM.
